Laboratory results reported in paper PMC9482650, “Quantitative fragmentomics allow affinity mapping of interactomes” (Nature Communications, 2022).

Columns and labels:
Test in all cases: holdup assay
Set-up in all cases: key: below the threshold = too weak to quantify, mostly under pKd 3.1 to 4
[1] = target: T1, TJP3_3, O95049
T1 sequence (O95049 375-456, limits assumed, looked up): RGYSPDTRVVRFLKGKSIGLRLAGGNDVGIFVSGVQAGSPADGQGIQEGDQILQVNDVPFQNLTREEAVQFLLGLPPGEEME

[2] = target: T2, RHPN1, Q8TCX5
T2 sequence (Q8TCX5 508-602, limits assumed, looked up): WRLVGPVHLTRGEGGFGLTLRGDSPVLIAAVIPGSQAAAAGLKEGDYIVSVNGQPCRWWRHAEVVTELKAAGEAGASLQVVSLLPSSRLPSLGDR

[3] = target: T3, FRMPD1, Q5SYB0
T3 sequence (Q5SYB0 52-145, limits assumed, looked up): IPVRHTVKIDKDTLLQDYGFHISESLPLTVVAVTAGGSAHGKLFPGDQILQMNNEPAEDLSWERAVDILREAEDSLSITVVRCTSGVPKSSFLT

[4] = target: MAGI2_6, Q86UL8
MAGI2_6, Q86UL8, sequence (Q86UL8 1141-1229): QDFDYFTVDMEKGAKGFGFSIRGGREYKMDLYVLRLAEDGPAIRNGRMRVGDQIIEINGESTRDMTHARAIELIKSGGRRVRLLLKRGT

[5] = target: T4, APBA3_1, O96018
T4 sequence (O96018 389-490, limits assumed, looked up): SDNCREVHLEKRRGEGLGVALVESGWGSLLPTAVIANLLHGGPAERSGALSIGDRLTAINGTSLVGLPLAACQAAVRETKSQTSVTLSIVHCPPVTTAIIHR

[6] = target: T5, MPP6, Q9NZW5
T5 sequence (Q9NZW5 125-219, limits assumed, looked up): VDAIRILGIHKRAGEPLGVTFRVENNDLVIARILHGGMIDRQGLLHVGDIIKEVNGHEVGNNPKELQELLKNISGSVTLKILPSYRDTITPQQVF

[7] = target: T6, APBA2_1, Q99767
T6 sequence (Q99767 563-664, limits assumed, looked up): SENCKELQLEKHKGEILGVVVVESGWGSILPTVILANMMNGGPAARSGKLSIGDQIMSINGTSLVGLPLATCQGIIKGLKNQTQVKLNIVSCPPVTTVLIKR

[8] = target: FRMPD2_1, Q68DX3
FRMPD2_1, Q68DX3, sequence (Q68DX3 770-861): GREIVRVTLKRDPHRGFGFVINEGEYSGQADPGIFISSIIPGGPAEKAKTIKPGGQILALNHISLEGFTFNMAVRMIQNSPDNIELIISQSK

[9] = target: T7, SNTG1, Q9NSN8
T7 sequence (Q9NSN8 52-150, limits assumed, looked up): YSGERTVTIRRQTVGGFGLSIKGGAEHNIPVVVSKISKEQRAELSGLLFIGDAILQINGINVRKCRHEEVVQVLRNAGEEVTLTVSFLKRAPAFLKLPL

[10] = target: T8, NHERF3_4, Q5T2W1
T8 sequence (Q5T2W1 373-468, limits assumed, looked up): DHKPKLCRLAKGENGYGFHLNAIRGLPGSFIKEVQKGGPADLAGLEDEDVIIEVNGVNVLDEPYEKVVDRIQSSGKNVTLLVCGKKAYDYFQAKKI

[11] = target: CASK, O14936
CASK, O14936, sequence (O14936 487-570): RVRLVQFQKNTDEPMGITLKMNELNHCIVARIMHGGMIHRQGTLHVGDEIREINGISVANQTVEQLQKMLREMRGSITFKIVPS

[12] = target: T9, SNTA1, Q13424
T9 sequence (Q13424 82-180, limits assumed, looked up): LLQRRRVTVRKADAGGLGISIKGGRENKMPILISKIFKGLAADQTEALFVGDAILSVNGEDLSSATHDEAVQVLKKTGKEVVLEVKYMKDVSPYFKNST

[13] = target: GRIP2_4, Q9C0E4
GRIP2_4, Q9C0E4, sequence (Q9C0E4 446-548): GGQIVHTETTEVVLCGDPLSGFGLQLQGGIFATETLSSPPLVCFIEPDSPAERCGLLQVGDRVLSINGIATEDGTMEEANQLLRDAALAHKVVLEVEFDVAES

[14] = target: TJP1_2, Q07157
TJP1_2, Q07157, sequence (Q07157 181-274): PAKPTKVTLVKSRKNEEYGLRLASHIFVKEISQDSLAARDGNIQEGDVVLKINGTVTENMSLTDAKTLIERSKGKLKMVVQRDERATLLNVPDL

[15] = target: MAGI1_1, Q96QZ7
MAGI1_1, Q96QZ7, sequence (Q96QZ7 1-106): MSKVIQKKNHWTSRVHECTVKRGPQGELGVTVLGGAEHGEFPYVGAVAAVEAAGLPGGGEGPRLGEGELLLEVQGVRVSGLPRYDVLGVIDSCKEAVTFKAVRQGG

[16] = target: GRIP2_7, Q9C0E4
GRIP2_7, Q9C0E4, sequence (Q9C0E4 934-1023): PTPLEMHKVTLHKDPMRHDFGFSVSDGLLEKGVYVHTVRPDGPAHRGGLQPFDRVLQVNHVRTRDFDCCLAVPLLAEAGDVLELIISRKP

[17] = target: T10, ARHGEF11, O15085
T10 sequence (O15085 42-136, limits assumed, looked up): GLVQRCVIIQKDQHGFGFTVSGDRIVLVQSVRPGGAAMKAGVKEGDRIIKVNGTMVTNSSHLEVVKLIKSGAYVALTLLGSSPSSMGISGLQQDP

[18] = target: T11, MPP7, Q5T2T1
T11 sequence (Q5T2T1 134-230, limits assumed, looked up): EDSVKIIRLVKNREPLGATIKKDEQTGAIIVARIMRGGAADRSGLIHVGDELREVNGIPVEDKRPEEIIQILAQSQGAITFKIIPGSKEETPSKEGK

[19] = target: T12, HTRA3, P83110
T12 sequence (P83110 354-453, limits assumed, looked up): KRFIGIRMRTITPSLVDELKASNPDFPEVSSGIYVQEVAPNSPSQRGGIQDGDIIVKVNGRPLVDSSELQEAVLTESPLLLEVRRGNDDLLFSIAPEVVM

[20] = target: T13, CARD11, Q9BXL7
T13 sequence (Q9BXL7 662-765, limits assumed, looked up): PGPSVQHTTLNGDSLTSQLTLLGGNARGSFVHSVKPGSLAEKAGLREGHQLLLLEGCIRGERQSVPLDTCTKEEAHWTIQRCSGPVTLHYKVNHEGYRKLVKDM

[21] = target: T14, PDZD7_3, Q9H5P4
T14 sequence (Q9H5P4 857-944, limits assumed, looked up): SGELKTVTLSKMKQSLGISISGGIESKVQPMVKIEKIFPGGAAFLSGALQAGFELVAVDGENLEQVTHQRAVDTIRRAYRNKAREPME

[22] = target: T15, TX1BP3, O14907
T15 sequence (O14907 10-122, limits assumed, looked up): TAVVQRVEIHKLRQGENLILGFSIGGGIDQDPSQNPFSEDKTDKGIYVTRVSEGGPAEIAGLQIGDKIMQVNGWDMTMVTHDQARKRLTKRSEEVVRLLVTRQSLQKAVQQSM

[23] = plain residues with an end cap or a label only (N-terminal biotin on a linker: ado-ado)
[24] = modified: phospho on T at position -2 from the C-terminal residue

QSGLYESEEL [MYOT, Q9UBF9]
pKd [1, 23]: below the threshold
pKd [2, 23]: below the threshold
pKd [3, 23]: below the threshold
pKd [4, 23]: 4.24
pKd [5, 23]: below the threshold
pKd [6, 23]: below the threshold
pKd [7, 23]: below the threshold
pKd [8, 23]: below the threshold
pKd [9, 23]: below the threshold
pKd [10, 23]: below the threshold
pKd [11, 23]: below the threshold
pKd [12, 23]: below the threshold
pKd [13, 23]: below the threshold
pKd [14, 23]: below the threshold
pKd [15, 23]: below the threshold
pKd [16, 23]: below the threshold
pKd [17, 23]: 4.38
pKd [18, 23]: below the threshold
pKd [19, 23]: below the threshold
pKd [20, 23]: below the threshold
pKd [21, 23]: 3.63
pKd [22, 23]: 3.85

PYSESDDDWC [CACNA1A, O00555]
pKd [1, 23]: 4.39
pKd [2, 23]: below the threshold
pKd [3, 23]: below the threshold
pKd [4, 23]: 4.17
pKd [5, 23]: below the threshold
pKd [6, 23]: below the threshold
pKd [7, 23]: below the threshold
pKd [8, 23]: below the threshold
pKd [9, 23]: 3.66
pKd [10, 23]: below the threshold
pKd [11, 23]: 3.53
pKd [12, 23]: below the threshold
pKd [13, 23]: below the threshold
pKd [14, 23]: below the threshold
pKd [15, 23]: below the threshold
pKd [16, 23]: below the threshold
pKd [17, 23]: 3.51
pKd [18, 23]: below the threshold
pKd [19, 23]: 5.79
pKd [20, 23]: below the threshold
pKd [21, 23]: below the threshold
pKd [22, 23]: below the threshold

AQRARSPSDV [GPR12, P47775]
pKd [1, 23]: below the threshold
pKd [2, 23]: below the threshold
pKd [3, 23]: below the threshold
pKd [4, 23]: below the threshold
pKd [5, 23]: below the threshold
pKd [6, 23]: below the threshold
pKd [7, 23]: below the threshold
pKd [8, 23]: below the threshold
pKd [9, 23]: below the threshold
pKd [10, 23]: below the threshold
pKd [11, 23]: below the threshold
pKd [12, 23]: below the threshold
pKd [13, 23]: below the threshold
pKd [14, 23]: below the threshold
pKd [15, 23]: 3.67
pKd [16, 23]: below the threshold
pKd [17, 23]: below the threshold
pKd [18, 23]: 3.59
pKd [19, 23]: below the threshold
pKd [20, 23]: below the threshold
pKd [21, 23]: 3.48
pKd [22, 23]: below the threshold

SSRTRRETQL [HPV16-E6_-2P, P03126]
pKd [1, 24]: below the threshold
pKd [2, 24]: below the threshold
pKd [3, 24]: below the threshold
pKd [4, 24]: below the threshold
pKd [5, 24]: below the threshold
pKd [6, 24]: below the threshold
pKd [7, 24]: below the threshold
pKd [8, 24]: below the threshold
pKd [9, 24]: below the threshold
pKd [10, 24]: below the threshold
pKd [11, 24]: below the threshold
pKd [12, 24]: below the threshold
pKd [13, 24]: below the threshold
pKd [14, 24]: below the threshold
pKd [15, 24]: below the threshold
pKd [16, 24]: below the threshold
pKd [17, 24]: below the threshold
pKd [18, 24]: below the threshold
pKd [19, 24]: below the threshold
pKd [20, 24]: below the threshold
pKd [21, 24]: below the threshold
pKd [22, 24]: 3.98

EDGESWEYQI [TRPV6, Q9H1D0]
pKd [1, 23]: below the threshold
pKd [2, 23]: below the threshold
pKd [3, 23]: below the threshold
pKd [4, 23]: 3.55
pKd [5, 23]: below the threshold
pKd [6, 23]: 3.81
pKd [7, 23]: below the threshold
pKd [8, 23]: below the threshold
pKd [9, 23]: 3.82
pKd [10, 23]: below the threshold
pKd [11, 23]: below the threshold
pKd [12, 23]: below the threshold
pKd [13, 23]: below the threshold
pKd [14, 23]: 3.56
pKd [15, 23]: below the threshold
pKd [16, 23]: 3.61
pKd [17, 23]: 3.63
pKd [18, 23]: 5.06
pKd [19, 23]: below the threshold
pKd [20, 23]: below the threshold
pKd [21, 23]: below the threshold
pKd [22, 23]: below the threshold

RQKEVRESKC [SCN8A, Q9UQD0]
pKd [1, 23]: below the threshold
pKd [2, 23]: below the threshold
pKd [3, 23]: below the threshold
pKd [4, 23]: below the threshold
pKd [5, 23]: below the threshold
pKd [6, 23]: below the threshold
pKd [7, 23]: below the threshold
pKd [8, 23]: below the threshold
pKd [9, 23]: 3.77
pKd [10, 23]: below the threshold
pKd [11, 23]: below the threshold
pKd [12, 23]: 4.65
pKd [13, 23]: below the threshold
pKd [14, 23]: below the threshold
pKd [15, 23]: below the threshold
pKd [16, 23]: below the threshold
pKd [17, 23]: below the threshold
pKd [18, 23]: below the threshold
pKd [19, 23]: 3.5
pKd [20, 23]: below the threshold
pKd [21, 23]: 3.85
pKd [22, 23]: 3.96
